This note sets out measurements from patent US20220324953A1 (JIANGSU HENGRUI MEDICINE, published 2022).

Numbering of substitutions follows the chain as printed.

The target in test [1] is T1, mouse CTGF (antigen of the Biacore assay) (mouse, UniProt P29268 26-348).
T1 construct: also called mouse CTGF protein
T1 sequence (looked up): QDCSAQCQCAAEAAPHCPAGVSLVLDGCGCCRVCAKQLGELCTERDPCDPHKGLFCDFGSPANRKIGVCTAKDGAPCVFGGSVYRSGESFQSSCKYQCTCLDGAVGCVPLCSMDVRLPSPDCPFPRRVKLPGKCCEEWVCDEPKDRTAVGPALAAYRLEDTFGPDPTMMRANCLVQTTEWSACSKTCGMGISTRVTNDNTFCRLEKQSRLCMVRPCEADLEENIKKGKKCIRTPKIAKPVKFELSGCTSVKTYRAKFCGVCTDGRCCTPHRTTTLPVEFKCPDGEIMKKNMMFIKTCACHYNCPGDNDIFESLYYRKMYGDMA
The test is described as follows: Biacore, antibody captured on Protein A, mouse CTGF in flow, 1:1 fit. An excerpt: (§1) A certain amount of each of the test antibodies was affinity-captured with Protein A biosensor chip (Cat. # 29127556, GE), and then a certain concentration of human or mouse CTGF was allowed to flow through the surface of the chip. The reaction signals were detected in real time with Biacore instrument to generate a binding and dissociation curve. After the dissociation was completed in each cycle, the biosensor chip was washed and regenerated with Glycine-HCl regeneration solution pH 1.5 (Cat. # BR-1003-54, GE). The running buffer for the assay was 1×HBS-EP buffer solution (Cat. # BR-1001-88, GE).

In test [2] the target is T2, human CTGF protein (R&D, Cat No. 9190-CC) (human, UniProt P29279 27-349).
T2 construct: Bought protein; also called CTGF recombinant protein; CTGF (R&D)
T2 sequence: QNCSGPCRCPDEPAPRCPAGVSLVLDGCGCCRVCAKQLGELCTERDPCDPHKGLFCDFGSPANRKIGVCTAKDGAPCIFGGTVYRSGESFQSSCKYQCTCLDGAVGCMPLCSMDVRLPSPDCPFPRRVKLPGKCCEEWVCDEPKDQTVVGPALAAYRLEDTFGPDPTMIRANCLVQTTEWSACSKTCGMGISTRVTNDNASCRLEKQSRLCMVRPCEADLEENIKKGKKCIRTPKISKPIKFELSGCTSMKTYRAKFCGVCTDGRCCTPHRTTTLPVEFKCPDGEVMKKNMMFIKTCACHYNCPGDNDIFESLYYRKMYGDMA
The test is described as follows: ELISA, plate coated with CTGF (R&D 9190-CC). The procedure: The binding activity of anti-human CTGF antibody to human CTGF protein was tested by ELISA assay and Biacore. A 96-well microtiter plate was directly coated with the CTGF recombinant protein. The signal strength upon the addition of the antibody was used to determine the binding activity of the antibody to CTGF. The specific experimental procedures were as follows:
The CTGF protein (R&D, Cat No. 9190-CC) was diluted with PBS, pH 7.4 (Shanghai Yuanpei, Cat No. B320) buffer to a concentration of 0.2 μg/ml, 50 μl/well of which was added into the 96-well microtiter plate (Corning, Cat No. CLS3590-100EA), and incubated in an incubator at 37° C. for 2 hours or at 4° C. overnight (16-18 hours). The liquid was removed, 250 μl/ well blocking solution (5% skim milk (BD skim milk, Cat No.232100) diluted in PBS) was added, and incubated in an incubator at 37° C. for 3 hours or at 4° C. overnight (16-18 hours) for blocking. After the blocking was finished, the blocking solution was removed, the plate was washed for 5 times with PBST buffer (PBS containing 0.1% Tween-20, pH 7.4), 50 μl/well of various concentrations of each of the test antibodies (antibodies purified from hybridoma or humanized antibodies) diluted with sample dilution solution were added, and incubated in an incubator at 37° C. for 1 hours. After the incubation was finished, the plate was washed for 3 times with PBST, 50 μl/well of HRP-labeled goat anti-mouse secondary antibody (Jackson Immuno Research, Cat No. 115-035-003) or goat anti-human secondary antibody (Jackson Immuno Research, Cat No. 109-035-003) diluted with sample dilution solution was added, and incubated at 37° C. for 1 hour. The plate was washed for 3 times with PBST, 50 μl/well of TMB chromogenic substrate (KPL, Cat No. 52-00-03) was added, incubated at room temperature for 5-10min, and 50 μl/well of 1 M H₂SO₄ was added to stop the reaction. The absorbance value was read by a microplate reader (Molecular Devices, VERSA max) at a wavelength of 450 nm, and the data was analyzed with GraphPad Prism 5. The binding of CTGF antibody to human CTGF protein was calculated as EC50 value.
(In general: An ELISA detects its analyte on a solid surface through an enzyme-linked reagent.)

In test [3] the target is T3, human CTGF (antigen of the Biacore assays) (human, UniProt P29279 27-349).
T3 construct: also called antigen human CTGF; human CTGF protein
T3 sequence (looked up): T2 sequence with D57H
Put plainly: Biacore, antibody captured on Protein A, CTGF in flow, 1:1 fit.
From the text: as §1
A general note: SPR reads the build-up and loss of mass on a sensor chip optically.

Test [4] has as its target T3, human CTGF (antigen of the Biacore …). The test is described as follows: Biacore, CTGF immobilised, antibody 150 µg/ml then 50 nM TGF-β1 (competitor TGF-β1). As for the experimental part: First, the antigen human CTGF was immobilized onto a CMS biosensor chip (Cat. # BR-1005-30, GE) by amino coupling, with an immobilization level of 1500 RU, and then a high concentration of CTGF antibody (150 μg/ml) was allowed to flow through the surface of the chip for 150 s; 50 nM TGF-β1 protein was injected for 120 s, and the reaction signals were detected in real time with the Biacore T200 instrument to generate a binding and dissociation curve. After the dissociation was completed in each of the experimental cycles, the biosensor chip was washed and regenerated with regeneration buffer.
The resulting experimental data were statistically analyzed with GE Biacore T200 Evaluation version 3.0 software.

B1: Hu164-67yl (antibody, human IgG1, lambda)
heavy: EVTLKESGPVLVKPTETLTLTCTVSGFSLSTFGVHWIRQPPGKGLEWLGVIWRRGGTDYNAAFMSRLTISKDTSKSQVVFTMTNMDPVDTATYYCARDGGFDYWGQGTTVTVSSASTKGPSVFPLAPSSKSTSGGTAALGCLVKDYFPEPVTVSWNSGALTSGVHTFPAVLQSSGLYSLSSVVTVPSSSLGTQTYICNVNHKPSNTKVDKKVEPKSCDKTHTCPPCPAPELLGGPSVFLFPPKPKDTLYITREPEVTCVVVDVSHEDPEVKFNWYVDGVEVHNAKTKPREEQYNSTYRVVSVLTVLHQDWLNGKEYKCKVSNKALPAPIEKTISKAKGQPREPQVYTLPPSRDELTKNQVSLTCLVKGFYPSDIAVEWESNGQPENNYKTTPPVLDSDGSFFLYSKLTVDKSRWQQGNVFSCSVMHEALHNHYTQKSLSLSPGK
light: ETVVTQEPSLTVSPGGTVTLTCRSSIGAVTTSNYANWVQQKPGQAFRGLIGGTSNRAPWTPARFSGSLLGGKAALTLSGVQPEDEAEYYCALWYSTHYVFGGGTKLTVLGQPKANPTVTLFPPSSEELQANKATLVCLISDFYPGAVTVAWKADGSPVKAGVETTKPSKQSNNKYAASSYLSLTPEQWKSHRSYSCQVTHEGSTVEKTVAPTEC
In the case of B1, in test [1], the affinity, expressed as Kd, was 0.0363 nM; the koff – broadly, the first-order rate constant of dissociation – is 0.00194 s⁻¹; the kon – broadly, a measure of how fast the partners come together – was determined as 5.34e+07 M⁻¹ s⁻¹. The EC50 (usually the concentration giving half of the maximal effect) in test [2] amounted to 0.06 nM. In test [3], the Kd (commonly a measure of binding affinity in units of concentration) worked out at 0.0662 nM, the koff amounted to 0.00227 s⁻¹ and the kon worked out at 3.43e+07 M⁻¹ s⁻¹. Also, the “Function-blocking percentage (%)” value in test [4] stood at 53.9%.
